The values that follow come from patent publication US20260318927 (published 2026).

The term Kd denotes a measure of binding affinity in units of concentration. A lower Kd goes with higher affinity.

Positions count from the first letter of the chain named.

In test [1] the target is T1, MR-proADM (human).
T1 chain: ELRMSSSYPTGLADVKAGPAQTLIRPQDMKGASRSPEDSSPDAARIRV
The experiment in a line: SPR, 25C pH 7.4, Ab 2-c.

Test [2] deals with T1, MR-proADM. Put plainly: SPR, 25C pH 7.4, Ab 2-b. For orientation: SPR reads the build-up and loss of mass on a sensor chip optically.
Test [3] has as its target T1, MR-proADM. The experiment in a line: SPR, antigen 2.
For test [4], the target named is T1, MR-proADM. The experiment in a line: SPR, antigen 1.
In test [5] the target is T1, MR-proADM. The experiment in a line: SPR, 25C pH 7.4, Ab 2-a.
For test [6], the target named is T1, MR-proADM. The experiment in a line: SPR, 25C pH 7.4, Ab 3-d.
Test [7] deals with T1, MR-proADM. Put plainly: SPR, 25C pH 7.4, Ab 3-c.
Test [8] deals with T1, MR-proADM. The experiment in a line: SPR, 25C pH 7.4, Ab 3-a.
Test [9] addresses T1, MR-proADM. Put plainly: SPR, 25C pH 7.4, Ab 3-b.
In test [10] the target is T1, MR-proADM. The experiment in a line: SPR, 25C pH 7.4.

B1: Ab2 (antibody, V domains shown)
VH: QIQLVQSGPELRKPGETVKISCKASGYTFTDYSMHWVKQVPGKVLKWMGWINTETGEPTYVDDFKGRFAFSLETSASTAYLRINILKNEDAATYFCATNFDYWGQGTTLTVSS
VL: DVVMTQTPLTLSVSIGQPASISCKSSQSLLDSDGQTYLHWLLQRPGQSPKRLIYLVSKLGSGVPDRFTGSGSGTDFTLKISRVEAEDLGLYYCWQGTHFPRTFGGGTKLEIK
Turning to B1, the Kd with MR-proADM [1] turned out to be 2.82 nM; in the test with MR-proADM [2], 3.02 nM; in the test with MR-proADM [3], 2.57 nM; with MR-proADM [4], 2.49 nM; in the test with MR-proADM [5] it was 2.97 nM.

B2: Ab3 (antibody, V domains shown)
VH: EVQLQQSGPELVRPGASVKISCKASGYSFTDYFMHWMKQSHVKSLEWIGRLNPYNGATNYNQNFKDKATLTVDKSSSTAYMELHSLTSEDSAVYYCLSFTTPPEAYWGQGTLVTVSA
VL: EIVMTQAAFSNPVTLGTSASISCRSNKSLLYSNGITYLFWYLQRPGQSPQLLIYQMSNLASGVPDRFSGSGSGTDFTLRISRVEAEDVGVYYCAQNLELPWTFGGGTKLEIK
Consider B2, for which the Kd with MR-proADM [6] came out at 20.1 nM; with MR-proADM [7], 18.8 nM; in the test with MR-proADM [8], 14.8 nM; with MR-proADM [3] it was 17.4 nM; in the test with MR-proADM [9] it was 17.1 nM; with MR-proADM [4] it was 13.9 nM.

B3: Ab5 (antibody, V domains shown)
VH: EVQLQQSGPELVKPGASVKISCKASGYSFTDYYMHWVKQSHVKSLEWIGRINPYNGATKYNQNFKDKASLTVDKSSSTAYMELHSLTSEDSAVYYCTRRYDNDDGDYWGQGTTLRVSS
VL: B2 VL with E1D, N26S, F39Y, R44K, G69S
Take B3: the Kd stood at 101 nM in the test with MR-proADM [3], 247 nM with MR-proADM [10] and 6.47 nM with MR-proADM [4].
